Test results reported in IntAct's records for PubMed 16292983.

B1: Ankyrin-2 (Homo sapiens), Q01484-2 (parent)
chain: MMNEDAAQKSDSGEKFNGSSQRRKRPKKSDSNASFLRAARAGNLDKVVEYLKGGIDINTCNQNGLNALHLAAKEGHVGLVQELLGRGSSVDSATKKGNTALHIASLAGQAEVVKVLVKEGANINAQSQNGFTPLYMAAQENHIDVVKYLLENGANQSTATEDGFTPLAVALQQGHNQAVAILLENDTKGKVRLPALHIAARKDDTKSAALLLQNDHNADVQSKMMVNRTTESGFTPLHIAAHYGNVNVATLLLNRGAAVDFTARNGITPLHVASKRGNTNMVKLLLDRGGQIDAKTRDGLTPLHCAARSGHDQVVELLLERGAPLLARTKNGLSPLHMAAQGDHVECVKHLLQHKAPVDDVTLDYLTALHVAAHCGHYRVTKLLLDKRANPNARALNGFTPLHIACKKNRIKVMELLVKYGASIQAITESGLTPIHVAAFMGHLNIVLLLLQNGASPDVTNIRGETALHMAARAGQVEVVRCLLRNGALVDARAREEQTPLHIASRLGKTEIVQLLLQHMAHPDAATTNGYTPLHISAREGQVDVASVLLEAGAAHSLATKKGFTPLHVAAKYGSLDVAKLLLQRRAAADSAGKNGLTPLHVAAHYDNQKVALLLLEKGASPHATAKNGYTPLHIAAKKNQMQIASTLLNYGAETNIVTKQGVTPLHLASQEGHTDMVTLLLDKGANIHMSTKSGLTSLHLAAQEDKVNVADILTKHGADQDAHTKLGYTPLIVACHYGNVKMVNFLLKQGANVNAKTKNGYTPLHQAAQQGHTHIINVLLQHGAKPNATTANGNTALAIAKRLGYISVVDTLKVVTEEVTTTTTTITEKHKLNVPETMTEVLDVSDEEGDDTMTGDGGEYLRPEDLKELGDDSLPSSQFLDGMNYLRYSLEGGRSDSLRSFSSDRSHTLSHASYLRDSAVMDDSVVIPSHQVSTLAKEAERNSYRLSWGTENLDNVALSSSPIHSGFLVSFMVDARGGAMRGCRHNGLRIIIPPRKCTAPTRVTCRLVKRHRLATMPPMVEGEGLASRLIEVGPSGAQFLGKLHLPTAPPPLNEGESLVSRILQLGPPGTKFLGPVIVEIPHFAALRGKERELVVLRSENGDSWKEHFCDYTEDELNEILNGMDEVLDSPEDLEKKRICRIITRDFPQYFAVVSRIKQDSNLIGPEGGVLSSTVVPQVQAVFPEGALTKRIRVGLQAQPMHSELVKKILGNKATFSPIVTLEPRRRKFHKPITMTIPVPKASSDVMLNGFGGDAPTLRLLCSITGGTTPAQWEDITGTTPLTFVNECVSFTTNVSARFWLIDCRQIQESVTFASQVYREIICVPYMAKFVVFAKSHDPIEARLRCFCMTDDKVDKTLEQQENFAEVARSRDVEVLEGKPIYVDCFGNLVPLTKSGQHHIFSFFAFKENRLPLFVKVRDTTQEPCGRLSFMKEPKSTRGLVHQAICNLNITLPIYTKESESDQEQEEEIDMTSEKNPQDEQERIEERLAYIADHLGFSWTELARELDFTEEQIHQIRIENPNSLQDQSHALLKYWLERDGKHATDTNLVECLTKINRMDIVHLMETNTEPLQERISHSYAEIEQTITLDHSEGFSVLQEELCTAQHKQKEEQAVSKESETCDHPPIVSEEDISVGYSTFQDGVPKTEGDSSATALFPQTHKEQVQQDFSGKMQDLPEESSLEYQQEYFVTTPGTETSETQKAMIVPSSPSKTPEEVSTPAEEEKLYLQTPTSSERGGSPIIQEPEEPSEHREESSPRKTSLVIVESADNQPETCERLDEDAAFEKGDDMPEIPPETVTEEEYIDEHGHTVVKKVTRKIIRRYVSSEGTEKEEIMVQGMPQEPVNIEEGDGYSKVIKRVVLKSDTEQSEDNNE

Variants of: B1
Conditions: with nac1_human SLC8A1, P32418

Variant | effect of a mutation on the interaction
E1458G | disrupting interaction
